Test results: patent publication US10118965B2, “Compositions and methods related to anti-EGFR antibody drug conjugates” (LegoChem Biosciences, Inc., priority 2015, dated 2018)
Values belong to the molecule of their own block, whether it stands above or below them. Where a SMILES comes first, the peptide text is derived from it. [ ]: non-standard residue; d: D form. Dolaproine = CO[C@@H]([C@@H]1CCCN1)[C@@H](C)C(=O)O; Dil = CC[C@H](C)[C@H](NC)[C@@H](CC(=O)O)OC; NMeV = CN[C@H](C(=O)O)C(C)C

How the values were obtained:
[1] = system: HCC-827 cells; assay: In vitro cytotoxicity, SRB assay, HCC-827 cells; type: cell-based; details: HCC-827 (EGFR Intermediate: del E746_A750), 72 hours
Procedure: (§1) A431 cells, which express high levels of EGFR, and MCF-7 cells, which express low levels of EGFR, were plated at about 1000 cells per well in a 96-well plate in 100 μL of media. HCC-827 cells, which express an intermediate level of EGFR were plated at about 500 cells per well in a 96-well plate in 100 μL of media. The cells were incubated at 37° C. in 5% CO2 for 24 hours. […] The cells were incubated for 72 hours and then fixed for 1 hour at 4° C. after adding 100 μL of ice-cold 10% tricholoracetic acid to each well. Viable cells were counted using SRB dye (Sulphorhodamine, Sigma S 1402) and a Molecular Devices SpectraMax 190 plate reader running Softmax Pro v5, monitoring absorbance at 540 nm (FIG. 12).

[2] = system: MCF-7 cells; assay: In vitro cytotoxicity, SRB assay, MCF-7 cells; type: cell-based; details: MCF7 (EGFR low), 72 hours
Procedure: as §1

[3] = system: A431 cells; assay: In vitro cytotoxicity, SRB assay, A431 cells; type: cell-based, human; details: A431 (EGFR high), 72 hours
Procedure: as §1

[4] = molecular target: epidermal growth factor receptor (EGFR) (human) (UniProt P00533); assay: flow cytometry on A431 cells, 0.5 µg/mL primary antibody, anti-human IgG1-PE secondary
[5] = molecular target: epidermal growth factor receptor (EGFR) (human) (UniProt P00533); assay: flow cytometry on A431 cells, 2 µg/mL human IgG1 negative control, anti-human IgG1-PE secondary (cell only: 11.7)
[6] = molecular target: epidermal growth factor receptor (EGFR) (human) (UniProt P00533); assay: flow cytometry on A431 cells, 2 µg/mL human IgG1 negative control, anti-human IgG1-PE secondary (cell only: 11.76)
[7] = molecular target: epidermal growth factor receptor (EGFR) (human) (UniProt P00533); assay: flow cytometry on A431 cells, 2 µg/mL human IgG1 negative control, anti-human IgG1-PE secondary (cell only: 10.84)

Molecule: CC[C@H](C)[C@@H]([C@@H](CC(=O)N1CCC[C@H]1[C@H](OC)[C@@H](C)C(=O)N[C@@H](Cc1ccccc1)C(=O)OC)OC)N(C)C(=O)[C@@H](NC(=O)[C@@H](NC)C(C)C)C(C)C [MMAF-Ome, monomethyl auristatin F-Ome] (H-[NMeV]V[Dil][Dolaproine]F-OMe)
IC50 [1]: 1.99 nM | IC50 [2]: 1.81 nM | IC50 [3]: 1.11 nM

Geometric Mean (PE-A fluorescence) [4]: 160
Molecule: Erbitux(LC)-G7CVIM (antibody)

Geometric Mean (PE-A fluorescence) [5]: 10.9 | Median (PE-A fluorescence) [6]: 11.4 | Peak Channel (PE-A fluorescence) [7]: 11.4
Molecule: Human IgG1 (antibody)
